{"source": "patent US20160376333A1", "about": "(University of Washington, published 2016)", "binders": {"B1": {"name": "Epstein-Barr virus BHRF1 a.a. 1-161 with C-terminal avi-6his tag (other)", "chain": "AYSTREILLALCIRDSRVHGNGTLHPVLELAARETPLRLSPEDTVVLRYHVLLEEIIERNSETFTETWNRFITHTEHVDLDFNSVFLEIFHRGDPSLGRALAWMAWCMHACRTLCCNQSTPYYVVDLSVRGMLEASEGLDGWIHQQGGWSTLIEDNIPGSGLNDIFEAQKIEWHEGSHHHHHH", "notes": "also called EBV BHRF1; BHRF1-biotin"}, "B2": {"name": "human Bcl-w a.a. 1-182 with C-terminal avi-6his tag (other)", "chain": "MATPASAPDTRALVADFVGYKLRQKGYVCGAGPGEGPAADPLHQAMRAAGDEFETRFRRTFSDLAAQLHVTPGSAQQRFTQVSDELFQGGPNWGRLVAFFVFGAALCAESVNKEMEPLVGQVQEWMVAYLETQLADWIHSSGGWAEFTALYGDGALEEARRLREGNWASVRTVLTGAVALGAGLNDIFEAQKIEWHEGSHHHHHH", "notes": "range 1-182; also called BCL2L2"}, "B3": {"name": "human Bfl-1 a.a. 1-153 (C4S) with C-terminal avi-6his tag (other)", "chain": "TDSEFGYIYRLAQDYLQCVLQIPQPGSGPSKTSRVLQNVAFSVQKEVEKNLKSCLDNVNVVSVDTARTLFNQVMEKEFEDGIINWGRIVTIFAFEGILIKKLLRQQIAPDVDTYKEISYFVAEFIMNNTGEWIRQNGGWENGFVKKFEPKSGGLNDIFEAQKIEWHEGSHHHHHH", "notes": "also called A1/Bfl-1"}, "B4": {"name": "human Mcl-1 a.a. 172-327 with C-terminal avi-6his tag (other)", "chain": "GSDELYRQSLEIISRYLREQATGAKDTKPMGRSGATSRKALETLRRVGDGVQRNHETAFQGMLRKLDIKNEDDVKSLSRVMIHVFSDGVTNWGRIVTLISFGAFVAKHLKTINQESCIEPLAESITDVLVRTKRDWLVKQRGWDGFVEFFHVEDLEGGGLNDIFEAQKIEWHEGSHHHHHH"}}, "key": {"[1]": {"biological_target": "B1", "assay": "yeast display library, FACS sort at 100 nM BHRF1, deep sequencing"}, "[2]": {"biological_target": "B1", "assay": "yeast display library, FACS sort at 400 nM BHRF1, deep sequencing"}, "[3]": {"biological_target": "B1", "assay": "yeast surface display; BHRF1 titrated on clonal yeast showing the design, fluorescence by flow cytometry (apparent KD)"}, "[4]": {"biological_target": "B4", "assay": "BLI at a single analyte concentration (50 nM, 600 s association, then buffer); biotinylated BCL2 protein on a streptavidin sensor"}, "[5]": {"biological_target": "human Bim-BH3 (a.a. 141-166) displayed on yeast (human, UniProt O43521 141-166)", "sequence (O43521 141-166 limits assumed)": "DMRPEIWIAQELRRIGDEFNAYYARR", "assay": "yeast surface display titration (apparent KD)"}, "[6]": {"biological_target": "T1, Bim-BH3 motif fused to the C-terminus of maltose-binding protein (MBP) (human, UniProt O43521 141-166)", "T1 construct": "domain: Bim-BH3 motif; also called MBP-Bim-BH3", "assay": "BLI, biotinylated target on streptavidin sensor, MBP-Bim-BH3 in solution"}, "[7]": {"biological_target": "B4", "assay": "yeast surface display titration (apparent KD)"}, "[8]": {"biological_target": "T2, human Bcl-2 a.a. 1-207 with C-terminal avi-6his tag (human, UniProt P10415 2-207)", "assay": "initial BLI screening (column 'Binds target?')"}, "[9]": {"biological_target": "T3, human Bcl-B a.a. 11-175 with C-terminal avi-6his tag (human)", "T3 construct": "also called BCL2L10", "T3 chain": "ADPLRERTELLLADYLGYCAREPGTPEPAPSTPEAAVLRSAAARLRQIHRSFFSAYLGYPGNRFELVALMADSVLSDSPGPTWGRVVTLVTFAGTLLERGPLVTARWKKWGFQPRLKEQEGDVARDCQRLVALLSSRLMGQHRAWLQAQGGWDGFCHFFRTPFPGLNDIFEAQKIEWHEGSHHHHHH", "assay": "ratio of the KD of the next tightest BCL2 protein to the KD of the target, BLI"}, "[10]": {"biological_target": "T2, human Bcl-2 a.a. 1-207 with C-terminal …", "assay": "BLI, biotinylated target on streptavidin sensor, range of analyte concentrations"}, "[11]": {"biological_target": "B2", "assay": "BLI, biotinylated target on streptavidin sensor, range of analyte concentrations"}, "[12]": {"biological_target": "B4", "assay": "BLI, biotinylated target on streptavidin sensor, range of analyte concentrations"}, "[13]": {"biological_target": "B3", "assay": "BLI, biotinylated target on streptavidin sensor, range of analyte concentrations"}, "[14]": {"biological_target": "T4, human Bcl-XL a.a. 1-205 with C-terminal avi-6his tag (human, UniProt Q07817 2-206)", "T4 construct": "also called BCL2L1", "T4 sequence (Q07817 other isoform, or with tags, fused parts or gaps limits assumed)": "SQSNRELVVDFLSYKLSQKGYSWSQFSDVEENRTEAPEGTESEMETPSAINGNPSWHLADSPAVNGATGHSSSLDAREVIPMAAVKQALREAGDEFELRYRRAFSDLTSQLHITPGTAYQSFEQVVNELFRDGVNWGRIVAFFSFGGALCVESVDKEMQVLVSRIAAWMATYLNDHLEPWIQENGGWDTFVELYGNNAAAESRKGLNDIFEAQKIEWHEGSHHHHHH", "assay": "BLI, biotinylated target on streptavidin sensor, range of analyte concentrations"}, "[15]": {"biological_target": "T3, human Bcl-B a.a. 11-175 with C-terminal …", "assay": "BLI, biotinylated target on streptavidin sensor, range of analyte concentrations"}, "[16]": {"biological_target": "B3", "assay": "ratio of the KD of the next tightest BCL2 protein to the KD of the target, BLI"}}}
{"binder": "Index 03 (designed binder) GLDHDKIVDEARKKMEKKIREAKDKAKEFVLKALDNNHDLKQFRELAHKWIALMLMAIGDAFNIMMEAKRKAEWLREQGQQDEDKAEEAKEKLDKAFKEAAERFEEIAKIYGKQAKNG", "values": [{"measurement": "Log2 enrichment ratio", "setting": "[1]", "result": 2.52, "unit": "log2"}, {"measurement": "Log2 enrichment ratio", "setting": "[2]", "result": 3.17, "unit": "log2"}, {"measurement": "Kd", "setting": "[3]", "result": 160, "unit": "nM"}]}
{"binder": "Index 04 (designed binder) GLLAEEGREQAEERLREARKKAEKAGDKIKDLAKYGQDSDDEKKKFMLKWIAAQLMVIGDMFNHAMEALWELLRRLKNNKISWDAFLKAKEEIEREEKEAARDSREKGREAAKMIDQG", "values": [{"measurement": "Log2 enrichment ratio", "setting": "[1]", "result": 2.11, "unit": "log2"}, {"measurement": "Log2 enrichment ratio", "setting": "[2]", "result": 1.96, "unit": "log2"}, {"measurement": "Kd", "setting": "[3]", "result": 44, "unit": "nM"}]}
{"binder": "M-CDP01 (designed binder) ADPKKVLDKAKDQAENRVRELKQELEELYKKARKLDLTQEERRKLEEEAIAALLRAIGDIYNAIQQALNEADKLKKAGLVNSQQLDELKRRLEELKKEASKKARDYGLEFFEKLDY", "values": [{"measurement": "binding result", "setting": "[4]", "result": "binds"}]}
{"binder": "M-CDP05 (designed binder) ADPKKVLDKAKDQAENRVRELKQKLEELYKEARKLDLTQEERHRLETKALSALLAAIGDILDAIMQALQEAAKLKKAGLVNSQQLDELKRRLEELRKEASRKARDYGREFWLKLDY", "values": [{"measurement": "binding result", "setting": "[4]", "result": "binds"}]}
{"binder": "B1", "values": [{"measurement": "Kd", "setting": "[5]", "result": 12, "unit": "nM"}, {"measurement": "Kd", "setting": "[6]", "result": 7, "unit": "nM"}]}
{"binder": "B2", "values": [{"measurement": "Kd", "setting": "[5]", "result": 2.1, "unit": "nM"}, {"measurement": "Kd", "setting": "[6]", "result": 20, "unit": "nM"}]}
{"binder": "B3", "values": [{"measurement": "Kd", "setting": "[5]", "result": 2.1, "unit": "nM"}, {"measurement": "Kd", "setting": "[6]", "result": 0.61, "unit": "nM"}]}
{"binder": "B4", "values": [{"measurement": "Kd", "setting": "[5]", "result": 0.6, "unit": "nM"}, {"measurement": "Kd", "setting": "[6]", "result": 0.17, "unit": "nM"}]}
{"binder": "BbpD04 (designed binder) ADWKKVLDKAKDIAENRVREIKQKLEEFYKKAMKLDLTQEMRRKLMLEWIAAMLMAIGDIFNAIEQAKQEADKLKKAGQVNSQLLDELKRRLEELKEEASRKCHDYGREFQLKLEY", "values": [{"measurement": "Kd", "setting": "[7]", "result": 17, "unit": "nM"}]}
{"binder": "2-CDP01 (designed binder) ADPKKVLDKAKDQAENVVRKLKQELEELYKEARKLDLTQDMREKIKLRAEAAELQAIGDIFQAILQAKMEAKKLYDAGLVNSQQLDELKRRLEELAKEAEDRAAKLGKEFLQKLEYG", "values": [{"measurement": "binding result", "setting": "[8]", "result": "binds"}]}
{"binder": "2-CDP02 (designed binder) ADPKKVLDKAKDRAENAVRELKQKLEELYKEARKLDLTQDMRNKLIMKAIAAELRAIGDIFQAILEAKAEAKKLLDAGLVNSQQFDELKRRLEELEEEAAERARKLGDEFRQKLEYG", "values": [{"measurement": "binding result", "setting": "[8]", "result": "binds"}]}
{"binder": "2-CDP03 (designed binder) ADPKKVLDKAKDQAENRVRELKQKLEELYKEARKLDLTQEMRRELKERALAARLQAVGDIFYAILQAKSEADKLKKAGLVNSQQLDELKRRLEELAEEAQRKARDYGIEFALKLEY", "values": [{"measurement": "binding result", "setting": "[8]", "result": "binds"}]}
{"binder": "2-CDP07 (designed binder) ADPKKVLDKAKDDAENRVRELKQKLEELYKEARKLDLTQEERDELKLKAIAASLQASGDIYNAILRALEEARKLKKAGLVNSQQLDELKRRLEELAEEAQRKANKLGDEFRLKLEY", "values": [{"measurement": "binding result", "setting": "[8]", "result": "binds"}]}
{"binder": "10-INDI (designed binder, also called αBCLB) ADPKKILDKAKDQVENRVRELKQELERLYKEARKLDLTQEMRRKLHVRYIEAMLKAIAAIMNAIAQAENEADKLKKAGLVNSQQLDELRRRLEELTEEAAQKAHDYGRELQLKLEY", "values": [{"measurement": "Specificity", "setting": "[9]", "result": 1010, "unit": "fold"}]}
{"binder": "10-ECM01 (designed binder) ADPKKILDKAKDQVENRVRELKQELERLYKEARKLDLTQEMRRKLHVRYIAAMLKAIAAILNAIAQAENEADKLKKAGLVNSQQLDELRRRLEELTEEAAQKAHDYGREFQLKLEYG", "values": [{"measurement": "Specificity", "setting": "[9]", "result": 31, "unit": "fold"}, {"measurement": "Kd", "setting": "[10]", "result": 12500, "unit": "nM"}, {"measurement": "Kd", "setting": "[11]", "result": 19000, "unit": "nM"}, {"measurement": "Kd", "setting": "[12]", "result": 3650, "unit": "nM"}, {"measurement": "Kd", "setting": "[13]", "result": 2380, "unit": "nM"}, {"measurement": "Kd", "setting": "[14]", "result": 7800, "unit": "nM"}, {"measurement": "Kd", "setting": "[15]", "result": 77, "unit": "nM"}]}
{"binder": "10-CDP01 (designed binder, also called B-CDP01) ADPKKVLDKAKDQAENRVRELKQELERLYKEARKLDLTQEMRRKLEWRYIAAMLKAIGDILNAIAQAENEADKLKKAGLVNSQQLDELRRRLEELAKEAARKAHDYGREFQLKLEY", "values": [{"measurement": "Specificity", "setting": "[9]", "result": 0.05, "unit": "fold"}, {"measurement": "Kd", "setting": "[10]", "result": 14, "unit": "nM"}, {"measurement": "Kd", "setting": "[11]", "result": 900, "unit": "nM"}, {"measurement": "Kd", "setting": "[12]", "result": 0.47, "unit": "nM"}, {"measurement": "Kd", "setting": "[13]", "result": 250, "unit": "nM"}, {"measurement": "Kd", "setting": "[14]", "result": 16, "unit": "nM"}, {"measurement": "apparent Kd (pooled screen)", "setting": "[15]", "result": 9, "unit": "nM"}]}
{"binder": "FINDI (designed binder, also called αBFL1) ADPKKVLDKAKDQAENRVRELKQKLEELYKEARKLDLTQEKRKKLEVATLGAVLAAHGDILNAIMQAKEEADKLKKAGLVNSQQLDELKRRLEELKEEALRKASDYGNEFHLKRRY", "values": [{"measurement": "Specificity", "setting": "[16]", "result": 350, "unit": "fold"}, {"measurement": "Kd", "setting": "[10]", "result": 321, "unit": "nM"}, {"measurement": "Kd", "setting": "[11]", "result": 7400, "unit": "nM"}, {"measurement": "Kd", "setting": "[12]", "result": 1700, "unit": "nM"}, {"measurement": "Kd", "setting": "[13]", "result": 0.91, "unit": "nM"}, {"measurement": "Kd", "setting": "[14]", "result": 900, "unit": "nM"}, {"measurement": "Kd", "setting": "[15]", "result": 31000, "unit": "nM"}]}
{"binder": "F-ECM04 (designed binder) ADPKKVLDKAKDQAENRVRELKQKLEELYKEARKLDLTQEMRKKLEVAALGAVLAAHGDILNAIMQAKEEADKLKKAGLVNSQQLDELKRRLEELKEEALRKASDYGKEFHLKRRYG", "values": [{"measurement": "Specificity", "setting": "[16]", "result": 91, "unit": "fold"}, {"measurement": "Kd", "setting": "[10]", "result": 100, "unit": "nM"}, {"measurement": "Kd", "setting": "[11]", "result": 3800, "unit": "nM"}, {"measurement": "Kd", "setting": "[12]", "result": 255, "unit": "nM"}, {"measurement": "Kd", "setting": "[13]", "result": 1.1, "unit": "nM"}, {"measurement": "Kd", "setting": "[14]", "result": 540, "unit": "nM"}, {"measurement": "Kd", "setting": "[15]", "result": 4000, "unit": "nM"}]}
